As usually defined, the EC50 is the concentration giving half of the maximal effect.

Test [1] has as its target T1, N-terminally flag tagged full-length GFRAL on transiently transfected HEK293F cells (Homo sapiens (Human), UniProt Q6UXV0 19-394).
T1 construct: also called GFRAL-overexpressing HEK293F cells; GFRAL-expressing cells
T1 sequence: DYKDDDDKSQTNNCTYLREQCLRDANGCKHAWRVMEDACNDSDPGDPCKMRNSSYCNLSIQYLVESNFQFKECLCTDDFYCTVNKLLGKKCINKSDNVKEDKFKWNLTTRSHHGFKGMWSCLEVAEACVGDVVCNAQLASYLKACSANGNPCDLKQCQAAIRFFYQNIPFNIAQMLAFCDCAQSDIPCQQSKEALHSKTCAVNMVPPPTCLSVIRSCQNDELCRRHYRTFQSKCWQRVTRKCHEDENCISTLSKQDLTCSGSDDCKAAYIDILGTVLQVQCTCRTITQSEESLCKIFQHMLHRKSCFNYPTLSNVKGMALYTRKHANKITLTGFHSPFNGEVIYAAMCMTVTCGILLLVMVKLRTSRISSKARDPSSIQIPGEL
Briefly: FACS on GFRAL-expressing HEK293F cells, dose response.

Test [2] has as its target T2, GFRα1 (Retrogenix library, on HEK293 cells) (human, UniProt P56159 25-429).
T2 construct: whole, on cells
T2 sequence (looked up): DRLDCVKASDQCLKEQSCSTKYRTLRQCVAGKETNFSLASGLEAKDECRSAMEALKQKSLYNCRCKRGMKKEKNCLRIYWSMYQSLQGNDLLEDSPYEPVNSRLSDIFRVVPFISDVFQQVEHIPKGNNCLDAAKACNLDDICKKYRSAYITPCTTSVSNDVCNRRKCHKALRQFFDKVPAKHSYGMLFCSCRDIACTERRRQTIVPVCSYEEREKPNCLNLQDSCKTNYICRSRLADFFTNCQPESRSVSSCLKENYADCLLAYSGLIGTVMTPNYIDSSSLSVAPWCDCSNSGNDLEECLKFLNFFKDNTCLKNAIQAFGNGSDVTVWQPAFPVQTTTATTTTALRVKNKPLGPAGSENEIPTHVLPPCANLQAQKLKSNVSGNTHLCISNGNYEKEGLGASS
As to the kind of experiment: Retrogenix cell microarray on HEK293 cells. How it is done:
(§1) In parallel, two studies were performed at Retrogenix Ltd (Whaley Bridge, High Peak, Derbyshire, UK) using Retrogenix' Cell Microarray technology to screen for binding partners for the Fc-GDF15 fusion molecule. Two studies were performed to screen Retrogenix's plasma membrane protein library, first on 3500 proteins and second on an additional 993 proteins, with total number of proteins screened being 4493. A background screen was performed prior to the primary screen to detect the background level of binding of the test ligand Fc-GDF15 at 2, 5, and 20 ug/ml with blank slides coated with live HEK293 cells and detected by using an AlexaFluor647 anti-Fc antibody. In the primary screen, vectors encoding each full-length human plasma membrane protein in the library were arrayed in duplicates on Retrogenix's cell microarray slides (referred to as ‘slide-set’). Three replicate slide-set were used in the primary screen. Control expression vector (pIRES-hEGFR-IRES-ZsGreen1) was spotted in quadruplicate on every slide to ensure that a minimal threshold of transfection efficiency had been achieved or exceeded on every slide. HEK293 cells were used for reverse transfection in live conditions. The test ligand Fc-GDF15 was added at the concentration of 20 ug/ml to each slide set. After the addition of test ligand, cell fixation was performed and the AlexaFluor647 anti-Fc antibody was used for binding detection. Fluorescent images were analyzed using ImageQuant software (GE) and a protein ‘hit’ is defined as a duplicate spot showing a raised signal compared to background levels by visual inspection using the images gridded on the ImageQuant software. Hits identified in the primary screen were tested in a confirmation screen, where all vectors encoding the hits in at least one of the three replicate primary screening slide-sets were arrayed on new slides. Confirmation screening was performed similar to the primary screening, with the addition of control samples for binding Fc. Binding of cells overexpressing CD86 to human CTLA4 fused to human Fc, served as a positive control, and binding to Fc alone served as a negative control.

Test [3] deals with T3, GFRα4 (Retrogenix library, on HEK293 cells) (human, UniProt Q9GZZ7 21-278).
T3 construct: whole, on cells
T3 sequence (looked up): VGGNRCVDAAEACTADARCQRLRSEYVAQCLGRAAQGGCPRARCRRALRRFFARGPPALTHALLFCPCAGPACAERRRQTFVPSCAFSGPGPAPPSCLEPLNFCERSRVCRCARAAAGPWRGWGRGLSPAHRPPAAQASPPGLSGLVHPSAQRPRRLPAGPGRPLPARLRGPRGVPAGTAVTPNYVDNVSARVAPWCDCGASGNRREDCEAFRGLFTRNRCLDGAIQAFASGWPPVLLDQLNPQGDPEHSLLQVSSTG
Briefly: Retrogenix cell microarray on HEK293 cells. How it is done:
as §1

Test [4] addresses T4, GFRα2 (Retrogenix library, on HEK293 cells) (human, UniProt O00451 22-444).
T4 construct: whole, on cells
T4 sequence (looked up): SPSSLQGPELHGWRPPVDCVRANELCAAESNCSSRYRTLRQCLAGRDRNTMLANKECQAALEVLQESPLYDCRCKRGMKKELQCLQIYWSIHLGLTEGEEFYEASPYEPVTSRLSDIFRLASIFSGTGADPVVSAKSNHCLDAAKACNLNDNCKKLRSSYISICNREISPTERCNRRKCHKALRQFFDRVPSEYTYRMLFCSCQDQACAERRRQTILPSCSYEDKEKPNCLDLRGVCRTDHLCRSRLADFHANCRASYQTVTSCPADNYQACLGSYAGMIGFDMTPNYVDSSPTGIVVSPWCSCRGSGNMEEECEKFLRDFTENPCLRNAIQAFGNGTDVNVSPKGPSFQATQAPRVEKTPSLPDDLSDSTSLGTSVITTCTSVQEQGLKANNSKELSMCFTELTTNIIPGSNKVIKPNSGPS
As to the kind of experiment: Retrogenix cell microarray on HEK293 cells. How it is done:
as §1

Test [5] concerns the target T5, GFRα3 (Retrogenix library, on HEK293 cells) (human, UniProt O60609 32-374).
T5 construct: whole, on cells
T5 sequence (looked up): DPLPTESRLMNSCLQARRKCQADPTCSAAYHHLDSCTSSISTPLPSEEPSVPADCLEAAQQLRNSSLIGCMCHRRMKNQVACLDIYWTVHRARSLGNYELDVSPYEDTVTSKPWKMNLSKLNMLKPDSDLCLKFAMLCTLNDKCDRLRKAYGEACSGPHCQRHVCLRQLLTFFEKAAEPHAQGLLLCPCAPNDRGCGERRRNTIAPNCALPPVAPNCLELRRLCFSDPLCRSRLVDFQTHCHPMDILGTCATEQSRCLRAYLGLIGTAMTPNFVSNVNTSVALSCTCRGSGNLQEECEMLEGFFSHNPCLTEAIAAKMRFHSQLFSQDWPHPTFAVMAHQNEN
As to the kind of experiment: Retrogenix cell microarray on HEK293 cells. How it is done: as §1

B1: heterodimeric Fc-GDF15 fusion molecule (Fc fusion)
chain 1: CPPCPAPEAAGGPSVFLFPPKPKDTLMISRTPEVTCVVVDVSQEDPEVQFNWYVDGVEVHNAKTKPREEQFNSTYRVVSVLTVLHQDWLNGKEYKCKVSNKGLPSSIEKTISKAKGQPREPQVYTLPPSQEEMTKNQVSLSCAVKGFYPSDIAVEWESNGQPENNYKTTPPVLDSDGSFFLVSRLTVDKSRWQEGNVFSCSVMHEALHNHYTQKSLSLSLGKGSGGGARNGDHCPLGPGRCCRLHTVRASLEDLGWADWVLSPREVQVTMCIGACPSQFRAANMHAQIKTSLHRLKPDTVPAPCCVPASYNPMVLIQKTDTGVSLQTYDDLLAKDCHCI
chain 2: CPPCPAPEAAGGPSVFLFPPKPKDTLMISRTPEVTCVVVDVSQEDPEVQFNWYVDGVEVHNAKTKPREEQFNSTYRVVSVLTVLHQDWLNGKEYKCKVSNKGLPSSIEKTISKAKGQPREPQVYTLPPSQEEMTKNQVSLWCLVKGFYPSDIAVEWESNGQPENNYKTTPPVLDSDGSFFLYSRLTVDKSRWQEGNVFSCSVMHEALHNHYTQKSLSLSLGK
notes: also called Fc-GDF15 ligand
B1 returned a 50% effective concentration (EC50) in test [1] of 0.258 nM. Besides, the binding result in test [2], in test [3], in test [4] and in test [5] was “no binding (tested: 20 ug/ml)” throughout.

The values are drawn from patent US20190234935A1 (Janssen / Centocor, published 2019).
